Data: IntAct's records for PubMed 25686249

Tests used:
pdc6i_human PDCD6IP = pdc6i_human PDCD6IP (UniProt Q8WUM4)
atg12_mouse Atg12 = atg12_mouse Atg12 (UniProt Q9CQY1)
atg12_mouse Atg12, sequence (Q9CQY1 whole entry): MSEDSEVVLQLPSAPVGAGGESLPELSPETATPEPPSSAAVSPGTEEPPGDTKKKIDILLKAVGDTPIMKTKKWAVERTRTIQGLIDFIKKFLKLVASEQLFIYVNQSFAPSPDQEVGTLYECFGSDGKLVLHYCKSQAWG

Ubiquitin-like-conjugating enzyme ATG3 (Mus musculus), Q9CPX6 K243R, sequence (Q9CPX6 whole entry K243R): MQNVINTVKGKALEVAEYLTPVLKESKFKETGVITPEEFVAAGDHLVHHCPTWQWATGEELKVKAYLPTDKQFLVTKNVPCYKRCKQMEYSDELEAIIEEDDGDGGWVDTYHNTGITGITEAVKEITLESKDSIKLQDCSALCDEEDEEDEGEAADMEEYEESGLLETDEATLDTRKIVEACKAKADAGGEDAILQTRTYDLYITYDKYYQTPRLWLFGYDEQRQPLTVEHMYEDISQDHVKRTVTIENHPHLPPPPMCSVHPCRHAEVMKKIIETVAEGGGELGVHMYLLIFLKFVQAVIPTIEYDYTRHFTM
pdc6i_human PDCD6IP, sequence (Q8WUM4 whole entry): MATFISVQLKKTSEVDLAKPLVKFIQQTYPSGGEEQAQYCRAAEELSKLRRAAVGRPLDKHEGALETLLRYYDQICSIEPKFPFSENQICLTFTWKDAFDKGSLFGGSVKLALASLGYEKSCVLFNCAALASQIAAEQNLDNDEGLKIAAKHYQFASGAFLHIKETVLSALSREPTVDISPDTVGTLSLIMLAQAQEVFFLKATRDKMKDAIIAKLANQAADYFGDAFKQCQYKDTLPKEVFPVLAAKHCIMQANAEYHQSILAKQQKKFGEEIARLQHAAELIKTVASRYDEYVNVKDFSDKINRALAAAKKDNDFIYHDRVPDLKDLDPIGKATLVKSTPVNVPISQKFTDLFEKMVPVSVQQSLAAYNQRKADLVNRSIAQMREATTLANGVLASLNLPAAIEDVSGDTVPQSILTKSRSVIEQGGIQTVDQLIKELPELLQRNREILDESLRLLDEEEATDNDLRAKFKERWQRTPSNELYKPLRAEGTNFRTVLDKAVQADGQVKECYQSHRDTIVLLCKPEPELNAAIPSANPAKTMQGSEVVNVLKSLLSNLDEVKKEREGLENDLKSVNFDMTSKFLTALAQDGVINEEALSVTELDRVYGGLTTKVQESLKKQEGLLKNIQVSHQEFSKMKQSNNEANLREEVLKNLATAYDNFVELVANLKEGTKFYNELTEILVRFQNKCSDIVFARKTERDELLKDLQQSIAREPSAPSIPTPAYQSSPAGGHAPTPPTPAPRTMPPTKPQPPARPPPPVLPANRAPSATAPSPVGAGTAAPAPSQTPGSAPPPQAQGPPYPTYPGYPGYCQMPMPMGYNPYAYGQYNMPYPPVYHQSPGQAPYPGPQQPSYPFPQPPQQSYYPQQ

- effect of a mutation on the interaction (pdc6i_human PDCD6IP): disrupting interaction strength
- effect of a mutation on the interaction (atg12_mouse Atg12): disrupting interaction strength
Substance: Ubiquitin-like-conjugating enzyme ATG3 (Mus musculus), Q9CPX6 K243R
